From paper PMC8311496

Tested on: PE6 (Mycobacterium tuberculosis)
Settings: 10 mM Tris-HCl pH 7.4, 100 mM NaCl, 298 K (fluorescence titration)

dsDNA (unspecified) gave a Kd of 1400 nM.
